Patent US20230110188A1 (ARGENX IIP, published 2023)

T1: Human MuSK (R&D Systems, cat. 10189-MK, histidine tag) (human, UniProt O15146 24-495)
T1 construct: Bought protein; also called human monomeric MuSK-6xhis; not shown: histidine tag (6xhis)
T1 sequence: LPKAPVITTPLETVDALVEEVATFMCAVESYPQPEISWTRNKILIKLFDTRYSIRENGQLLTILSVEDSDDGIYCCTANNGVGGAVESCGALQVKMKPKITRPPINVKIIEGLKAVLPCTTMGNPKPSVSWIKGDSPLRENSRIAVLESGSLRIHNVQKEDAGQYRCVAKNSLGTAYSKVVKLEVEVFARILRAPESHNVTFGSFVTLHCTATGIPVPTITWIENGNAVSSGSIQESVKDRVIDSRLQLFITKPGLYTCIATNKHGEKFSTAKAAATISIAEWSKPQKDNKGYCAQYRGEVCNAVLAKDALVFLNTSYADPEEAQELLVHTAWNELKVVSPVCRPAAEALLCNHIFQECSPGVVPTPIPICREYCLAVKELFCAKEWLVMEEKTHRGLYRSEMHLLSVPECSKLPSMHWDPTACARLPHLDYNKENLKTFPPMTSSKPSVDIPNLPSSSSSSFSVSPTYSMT

T2: human monomeric MuSK FLAG streptavidin (in house produced, batch 27-6-2019) (human, UniProt O15146 24-495)
T2 construct: also called full length MuSK; not shown: FLAG and streptavidin tags
T2 sequence: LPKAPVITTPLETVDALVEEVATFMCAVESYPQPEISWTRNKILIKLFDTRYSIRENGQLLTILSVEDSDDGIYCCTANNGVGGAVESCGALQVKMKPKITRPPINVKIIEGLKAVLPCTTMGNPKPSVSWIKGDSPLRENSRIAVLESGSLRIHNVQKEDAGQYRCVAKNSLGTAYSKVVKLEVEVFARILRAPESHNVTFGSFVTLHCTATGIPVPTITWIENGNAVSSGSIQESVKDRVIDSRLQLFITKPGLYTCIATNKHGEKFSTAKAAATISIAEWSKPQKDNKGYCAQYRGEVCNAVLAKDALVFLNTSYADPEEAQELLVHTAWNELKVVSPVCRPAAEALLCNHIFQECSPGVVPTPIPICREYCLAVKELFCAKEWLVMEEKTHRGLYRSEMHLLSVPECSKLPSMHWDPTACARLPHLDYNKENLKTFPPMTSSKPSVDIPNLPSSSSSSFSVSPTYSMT

T3: hMuSK delta 1-2 (Ig3 Fz) (human, UniProt O15146)
T3 construct: truncated extracellular domain, captured by anti-FLAG
T3 sequence (truncated extracellular domain, looked up): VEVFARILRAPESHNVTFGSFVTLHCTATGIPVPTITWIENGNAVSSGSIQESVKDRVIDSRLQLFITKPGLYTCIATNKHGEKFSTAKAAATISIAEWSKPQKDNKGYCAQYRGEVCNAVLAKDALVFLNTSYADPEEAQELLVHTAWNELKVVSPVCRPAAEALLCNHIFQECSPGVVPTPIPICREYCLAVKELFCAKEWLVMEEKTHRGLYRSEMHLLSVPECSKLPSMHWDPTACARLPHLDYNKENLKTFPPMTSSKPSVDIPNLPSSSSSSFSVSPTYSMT


How the values were obtained:
[1] = target: T1, Human MuSK (R&D Systems, cat. 10189-MK, …); test: SPR (Biacore), antibody captured on anti-hFc chip; 0.625 nM; dissociation pH 5.5
Source text: In order to study pH dependent binding of our antibodies to MuSK, the Biacore was used with the same setup as described in the paragraph entitled “Binding affinity for mouse, human and rhesus monkey recombinant MuSK in Biacore”. 6. […] For the other antibodies there is no real difference observed between pH 7.4 and 5.5.

[2] = target: T2, human monomeric MuSK FLAG streptavidin …; test: epitope binning ELISA (coated anti-MuSK Fab, MuSK, IgG, anti-Fc HRP); competitor: 4D3
Description: For epitope binning—An ELISA plate was coated at 1 μg/ml of the anti-MuSK Fabs and incubated overnight at 4° C. Next, the plate was wash with PBS followed by blocking with 1% casein in PBS for one hour. After washing the plate, 1 μg/ml of human monomeric MuSK (in house produced, batch 27-6-2019) was incubated for one hour at RT. The plate was washed and anti-MuSK antibodies at 0.3-10 μg/ml were added to the plate and incubated for one hour at RT. After washing the plate, detection antibody (goat anti-human Fc HRP (Jackson Immunoresearch cat. 109-035-098)) was added at 5000 fold dilution in PBS 0.1% casein. The plate was incubated for one hour at RT and washed with PBS-T. TMB was added and the reaction was stopped by adding H2504. […]
For the epitope binning ELISA, a plate was coated with anti-MuSK Fab and human monomeric MuSK was added after blocking the plate. Next the different antibodies were added and allowed to bind.

[3] = target: T1, Human MuSK (R&D Systems, cat. 10189-MK, …); test: SPR (Biacore), MuSK-coated chip presaturated with 500 nM 3D9b (competitor)
Description: A chip was coated with ˜5000 RU of human MuSK (Lot nr DHUCO 11908A, batch nr 1089_MK). In a first experiment the saturating concentration of the pre-leads was determined. This is the concentration where the amplitude of a specific pre-lead doesn't increase anymore when additional pre-lead is injected on the immobilized MuSK.

hMuSK delta 1-2 (Ig3 Fz) = target: T3, hMuSK delta 1-2 (Ig3 Fz); test: ELISA, hMuSK delta 1-2 (Ig3 Fz) captured on anti-FLAG coat, antibody titrated, anti-human Fc HRP detection, OD450
Description: For binding to MuSK domains—An ELISA plate was coated with 0.5 μg/ml of anti-FLAG (M2 clone, Sigma Cat. F3165) and incubated overnight at 4° C. Next, the plate was washed with PBS and blocked with 1×PBS 1% casein for two hours at RT. After washing the plate, human monomeric MuSK FLAG streptavidin (batch 27-6-2019) and truncated MuSK variants (batch 3-9-2019) at 1 μg/ml in PBS where incubated for one hour at RT. After washing the plate, antibodies were diluted in blocking buffer and added to the plate. After a one hour incubation at RT, the plate was washed. Next, detecting antibody was added and incubated for one hour at RT (anti-human Fc HRP (1/5000) (clone 5A9, cat. No. Ab7499, ABCAM)) in blocking buffer. Lastly, the plate was washed with PBS and TMB was added and the reaction was stopped with 0.5 M H2SO4. OD 450 nm was determined by the Tecan Sunrise ELISA plate reader.
For the MuSK domain binding ELISA, binding of anti-MuSK antibodies to FLAG captured human monomeric MuSK and truncated variants was tested (FIG. 6). 3D9b, 3F6c, 3D10a, 4D3 and 3B5 bound only to full length MuSK, no binding was observed against the truncated MuSK variants. Therefore, we conclude that our antibodies bind to the Ig1 domain.

Row | koff [1] | OD 450 nm [2] | amplitude of prelead after presaturating MuSK (RU) [3] | extra amplitude (%) [3] | normalized extra amplitude (%) [3] | Binder | binding result (hMuSK delta 1-2 (Ig3 Fz))
1 | 0.00012 s⁻¹ | 0.062 OD | -1 RU | -0.5% | -1.5% | 3D10a (antibody, human IgG1, kappa, L234A L235A, V domains shown) VH: EVQLVESGGGLVKPGGSLRLSCAASGFTFSASTMAWVRQAPGKGLEWVSSVSGDSHHIYYADSLKGRFTISRDNAKNSLYLQMNSLRAEDTAVYYCARERLLRLGVGFDSWGQGTLVTVSS VL: DIQMTQSPSSLSASVGDRVTITCRASQRISGFVNWYQQKPGKAPKLLIYAASTLQSGVPSRFSGSGSGTDFTLTISSLQPEDFATYYCQQSYSPLYTFGQGTKLEIKR | no binding (tested: log(conc) 4.2 (about 16000 ng/ml))
2 | 0.00014 s⁻¹ | 0.076 OD | -5 RU | -2.1% | -3.1% | 3F6c (antibody, human IgG1, kappa, L234A L235A, V domains shown) VH: EVQLVESGGGLVKPGGSLRLSCAASGFTFSSYTMDWVRQAPGKGLEWVSSIGSNGDYIYYADSVRGRFTISRDNAKNSLYLQMNSLRAEDTAVYYCARGQLAVAGTHFDYWGQGTLVTVSS VL: DIQMTQSPSSLSASVGDRVTITCRASQKVNKYVNWYQQKPGKAPKLLIYAASTLQSGVPSRFSGSGSGTDFTLTISSLQPEDFATYYCQQSYSPLSTFGQGTKLEIKR | no binding (tested: log(conc) 4.2 (about 16000 ng/ml))
3 | 0.00013 s⁻¹ | 0.023 OD | -3 RU | -1.6% | -2.6% | 4D3 (antibody, human IgG1, kappa, L234A L235A, V domains shown) VH: EVQLVESGGGLVKPGGSLRLSCAASGFTFSSYTMTWVRQAPGKGLEWVSSISSGGHYIYYTDSLKGRFTISRDNAKNSLYLQMNSLRAEDTAVYYCARERLLRLGVGFDFWGQGTLVTVSS VL: DIQMTQSPSSLSASVGDRVTITCRASQSISGYLNWYQQKPGKAPKLLIYAASTLQSGVPSRFSGSGSGTDFTLTISSLQPEDFATYYCQQSYSALYTFGQGTKLEIKR | no binding (tested: log(conc) 4.2 (about 16000 ng/ml))
4 | 4e-05 s⁻¹ | 0.086 OD | 40 RU | 1% | 0% | 3D9b (antibody, human IgG1, kappa, L234A L235A, V domains shown) VH: EVQLVESGGGLVKPGGSLRLSCAASGFTFSTYTMHWVRQAPGKGLEWVSSISSRSAYKYYADSVKGRFTISRDNAKNSLYLQMNSLRAEDTAVYYCARDFFQLGPPRFDSWGQGTLVTVSS VL: DIQMTQSPSSLSASVGDRVTITCRASQRISSFLNWYQQKPGKAPKLLIYGASNLQSGVPSRFSGSGSGTDFTLTISSLQPEDFATYYCQQSYSPSYTFGQGTKLEIKR | no binding (tested: log(conc) 4.2 (about 16000 ng/ml))
